Source: patent publication US20160185837A1 (AstraZeneca / MedImmune, published 2016)

Tests used:
Experiment in all cases: cell-based or functional assay
mouse GLP-1 receptor = biological target: T1, mouse GLP-1 receptor (mouse, UniProt O35659 22-463)
T1 sequence (looked up): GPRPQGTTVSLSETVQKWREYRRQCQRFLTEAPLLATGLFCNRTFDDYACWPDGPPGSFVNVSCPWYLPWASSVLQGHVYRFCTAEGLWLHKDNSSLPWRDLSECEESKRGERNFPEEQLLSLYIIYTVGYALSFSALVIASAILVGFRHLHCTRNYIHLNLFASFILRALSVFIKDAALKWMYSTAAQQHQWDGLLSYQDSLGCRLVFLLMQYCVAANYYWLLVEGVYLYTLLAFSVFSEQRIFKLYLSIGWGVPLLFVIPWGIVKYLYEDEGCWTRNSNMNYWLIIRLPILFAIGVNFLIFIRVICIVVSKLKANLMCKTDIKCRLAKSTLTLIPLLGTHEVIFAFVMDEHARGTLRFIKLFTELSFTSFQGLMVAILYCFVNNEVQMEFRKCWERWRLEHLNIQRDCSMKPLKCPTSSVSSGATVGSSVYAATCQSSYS

rat GLP-1 receptor = biological target: T2, rat GLP-1 receptor (rat, UniProt P32301 22-463)
T2 sequence (looked up): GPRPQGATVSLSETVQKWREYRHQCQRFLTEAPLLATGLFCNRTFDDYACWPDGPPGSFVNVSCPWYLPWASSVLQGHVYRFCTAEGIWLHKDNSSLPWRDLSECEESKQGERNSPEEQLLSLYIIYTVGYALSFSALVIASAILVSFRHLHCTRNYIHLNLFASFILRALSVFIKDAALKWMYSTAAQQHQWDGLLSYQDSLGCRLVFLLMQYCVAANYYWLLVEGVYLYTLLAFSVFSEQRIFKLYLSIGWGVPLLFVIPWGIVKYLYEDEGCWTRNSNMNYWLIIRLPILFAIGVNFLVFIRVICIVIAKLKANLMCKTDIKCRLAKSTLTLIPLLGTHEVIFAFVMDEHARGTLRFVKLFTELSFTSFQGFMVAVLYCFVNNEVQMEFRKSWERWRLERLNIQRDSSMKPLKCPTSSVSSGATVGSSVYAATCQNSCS

human GLP-1 receptor = human GLP-1 receptor (human, UniProt P43220 24-463)
mouse GIP receptor = biological target: T3, mouse GIP receptor (mouse, UniProt Q0P543 19-460)
T3 sequence (looked up): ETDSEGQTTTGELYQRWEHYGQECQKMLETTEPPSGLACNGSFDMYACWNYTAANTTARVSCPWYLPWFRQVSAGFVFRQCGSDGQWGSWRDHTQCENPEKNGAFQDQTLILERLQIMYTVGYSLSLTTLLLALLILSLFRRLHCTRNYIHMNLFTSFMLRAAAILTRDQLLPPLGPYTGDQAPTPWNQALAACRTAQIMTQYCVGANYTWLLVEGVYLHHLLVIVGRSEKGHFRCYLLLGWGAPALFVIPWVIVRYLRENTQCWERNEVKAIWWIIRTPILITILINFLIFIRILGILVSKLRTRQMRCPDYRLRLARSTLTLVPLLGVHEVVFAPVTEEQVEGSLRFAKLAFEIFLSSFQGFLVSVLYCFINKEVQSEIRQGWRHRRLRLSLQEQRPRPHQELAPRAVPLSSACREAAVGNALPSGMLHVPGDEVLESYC

human glucagon receptor = human glucagon receptor (human, UniProt P47871 26-477)
rat GIP receptor = biological target: T4, rat GIP receptor (rat, UniProt P43219 19-455)
T4 sequence (looked up): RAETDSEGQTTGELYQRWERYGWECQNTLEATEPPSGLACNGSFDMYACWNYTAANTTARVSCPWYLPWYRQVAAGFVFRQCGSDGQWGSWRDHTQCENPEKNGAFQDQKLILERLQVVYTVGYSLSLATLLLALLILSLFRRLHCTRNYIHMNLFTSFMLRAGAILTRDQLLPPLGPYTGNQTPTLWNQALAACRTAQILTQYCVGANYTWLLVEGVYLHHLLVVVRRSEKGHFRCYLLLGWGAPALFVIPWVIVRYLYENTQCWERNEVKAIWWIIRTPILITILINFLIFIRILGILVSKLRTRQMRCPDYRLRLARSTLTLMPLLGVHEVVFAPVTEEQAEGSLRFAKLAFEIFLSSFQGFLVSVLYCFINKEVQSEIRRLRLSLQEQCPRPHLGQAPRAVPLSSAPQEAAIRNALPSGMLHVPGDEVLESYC

human GIP receptor = biological target: T5, human GIP receptor (human, UniProt P48546 22-466)
T5 sequence (looked up): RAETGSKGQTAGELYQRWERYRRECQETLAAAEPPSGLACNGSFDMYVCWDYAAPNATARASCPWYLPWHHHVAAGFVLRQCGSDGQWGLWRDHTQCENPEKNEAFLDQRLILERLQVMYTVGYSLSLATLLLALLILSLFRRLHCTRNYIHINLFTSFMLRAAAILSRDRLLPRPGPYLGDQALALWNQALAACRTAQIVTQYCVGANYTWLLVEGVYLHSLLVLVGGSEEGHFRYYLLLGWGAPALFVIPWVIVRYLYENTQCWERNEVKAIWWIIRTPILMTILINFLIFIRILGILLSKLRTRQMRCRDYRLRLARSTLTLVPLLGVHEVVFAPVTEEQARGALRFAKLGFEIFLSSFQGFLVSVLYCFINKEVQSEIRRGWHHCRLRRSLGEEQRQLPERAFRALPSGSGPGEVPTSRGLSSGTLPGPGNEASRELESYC

Binder	cAMP EC50 (mouse GLP-1 receptor) [nM]	cAMP EC50 (rat GLP-1 receptor) [nM]	cAMP EC50 (human GLP-1 receptor) [nM]	cAMP EC50 (mouse GIP receptor) [nM]	cAMP EC50 (human glucagon receptor) [nM]	cAMP EC50 (rat GIP receptor) [nM]	cAMP EC50 (human GIP receptor) [nM]	cAMP EC50, Batch 2 (mouse GLP-1 receptor) [nM]	cAMP EC50, Batch 2 (rat GLP-1 receptor) [nM]	cAMP EC50, Batch 2 (human GLP-1 receptor) [nM]	cAMP EC50, Batch 2 (mouse GIP receptor) [nM]	cAMP EC50, Batch 2 (human glucagon receptor) [nM]	cAMP EC50, Batch 2 (rat GIP receptor) [nM]	cAMP EC50, Batch 2 (human GIP receptor) [nM]
IP383 (Fc fusion) YSEGTFTSLYRILLEEEAVRLFIEWLLAGGGGGGSGGGGSGGGGSGGGGSATHTCPPC	20.1	0.13	0.19	46.7	> 1610	0.976	–	–	–	–	–	–	–	–
IP147 (Fc fusion) YSEGTFTSDYSKLLEEEAVRLFIEWLVKGPAPPGGSGSTASSGSGSATGGGGAATHTCPPCPAPEF	8.5	1.1	0.067	–	130	6.8	0.0037	–	–	–	–	–	–	–
IP149 (Fc fusion) YSQGTFTSDYSKLLEEEAVRLFIEWLVKGPAPPGGSGSTASSGSGSATGGGGAATHTCPPCPAPEF	–	–	0.07	–	0.2	–	0.0081	0.37	0.031	0.12	53	0.23	0.19	0.012
IP228 (Fc fusion) YSEGTFTSDYSKLLEEEAVRLFIEWLKNGGAAAGGSGSTASSGSGSATGGGGAATHTCPPCPAPEF	0.69	0.096	0.16	–	1400	7	0.014	–	–	–	–	–	–	–
IP245 (Fc fusion) YSEGTFTSDYSIAMDEEAVRLFIEWLVKGPAAAGGSGSTASSGSGSATGGGGAATHTCPPCPAPEF	4.8	0.4	0.46	190	–	48	0.15	–	–	–	–	–	–	–
IP249 (Fc fusion) YSEGTFTSDYSKLLEEEAVRLFIEWLLAQKAAAGGSGSTASSGSGSATGGGGAATHTCPPCPAPEF	15	0.15	2.6	180	–	0.19	0.019	–	–	–	–	–	–	–
IP222 (Fc fusion) YSEGTFTSDYSKLLEEEAVRLFIEWLKNGGPSSGAPPPSAAAGGSGSTASSGSGSATGGGGAATHTCPPCPAPEF	0.46	0.058	0.14	160	590	0.72	0.015	–	–	–	–	–	–	–
IP127 (Fc fusion) YSEGTFTSDVSSYLEEEAVREFIEWLLAGGAAAGGSGSTASSGSGSATGGGGAATHTCPPCPAPEF	0.6	0.047	0.087	–	–	17	0.12	–	–	–	–	–	–	–
